Reference: patent US20230111102A1 (KAO, published 2023)

Target: T1, HEWL (lysozyme, derived from egg albumen, FUJIFILM Wako Pure Chemical Corporation) (UniProt P00698 19-147)
T1 construct: Immobilised on a CM5 sensor chip by amine coupling (target 150 RU); Species is only implied by 'derived from egg albumen' and the abbreviation HEWL; also called antigen
Assay: SPR (Biacore T200), HEWL amine-coupled to CM5 chip, 1ZVH at 8.6-700 nM as analyte, 1:1 binding model
Procedure: The antigen-binding activity of the 1ZVH (SEQ ID NO: 38) produced by Dpr9ΔsigF was analyzed by intermolecular interaction measurement using Biacore T200 (GE Healthcare). The sensor chip used was Series S Sensor Chip CM5, and the running buffer used was HBS-EP+. HEWL (lysozyme, derived from egg albumen, FUJIFILM Wako Pure Chemical Corporation) was adjusted to 0.7 g/L with 25 mM Na phosphate pH 6.5 buffer to prepare an antigen solution. The antigen solution diluted 100-fold with an acetic acid aqueous solution (pH 4.0, 4.5, 5.0, or 5.5) to 7 μg/mL was used as substrates. As samples, 1ZVH diluted with the running buffer to 8.6 nM, 26 nM, 78 nM, 230 nM, or 700 nM was used. The following items were set or performed on the control software attached to Biacore T200 using the substrates and the samples, and the binding between the HEWL and the 1ZVH was monitored. Immobilisation pH scouting was performed to investigate the optimum pH for ill- mobilization to a sensor chip. The optimum pH condition was judged to be pH 5.5. The target was set to 150 RU with Aim for immobilized level, and lysozyme was immobilized to Flow path 2 by an amine coupling method. In Flow path 1, Blank Immobilization was performed. The binding between a substrate and a sample was monitored in Flow path 2-1. […] The kinetics were analyzed using the resulting sensor gram. […]

T1 sequence (P00698 19-147 limits assumed): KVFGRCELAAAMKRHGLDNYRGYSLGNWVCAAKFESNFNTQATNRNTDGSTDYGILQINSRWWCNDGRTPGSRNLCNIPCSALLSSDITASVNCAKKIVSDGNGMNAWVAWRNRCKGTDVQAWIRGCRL

binding result: binds
B1: 1ZVH (VHH, SEQ ID NO: 38) produced by Bacillus subtilis Dpr9ΔsigF (VHH)
VHH: QVQLVESGGGLVQPGGSLRLSCAASGFTFSNDAMTWVRQAPGKALEWVSSITLLGGGIPYYSDTVKGRFTISRDNTKNMLYLQMNSLKPEDTAVYYCAKGFKSDYPRGQGTQVTVSS
notes: Secreted by Dpr9ΔsigF and purified on Ni-NTA agarose; also called the VHH (1ZVH); purified VHH
